Measurements from article doi:10.1101/2025.05.24.655970.

Biological target: Dob3, ferritin-like diiron oxidase/oxygenase (FDO) of the dob gene cluster (Nocardia ninae)
Experiment: SEC; size-exclusion chromatography of purified Dob3; column and buffer not told in the text shown (Supplementary Figure 19)

stoichiometry N: 2
Substance: Dob3, ferritin-like diiron oxidase/oxygenase (FDO) of the dob gene cluster (enzyme)
